Substrate in the series: CC(C)C[C@H](N)C(=O)Nc1ccc([N+](=O)[O-])cc1
In words: purified protein. Format: biochemical, Pyrococcus horikoshii. The settings on record: pH 7.5 (20 mM Tris, 100 mM NaCl), 50 °C, 2.8% DMSO, 0.1-6.4 mM substrate.

[1] abbreviates: mutant printed as Δ(122,126), loop shortened by one residue on each side of H123.
Where [2] appears, read: Δloop mutant, loop printed as shortened to a two-residue β-turn and as lacking residues 120-138.

B1: TET2 (Pyrococcus horikoshii OT3) (protein)
chain: MEVRNMVDYELLKKVVEAPGVSGYEFLGIRDVVIEEIKDYVDEVKVDKLGNVIAHKKGEGPKVMIAAHMDQIGLMVTHIEKNGFLRVAPIGGVDPKTLIAQRFKVWIDKGKFIYGVGASVPPHIQKPEDRKKAPDWDQIFIDIGAESKEEAEDMGVKIGTVITWDGRLERLGKHRFVSIAFDDRIAVYTILEVAKQLKDAKADVYFVATVQEEVGLRGARTSAFGIEPDYGFAIDVTIAADIPGTPEHKQVTHLGKGTAIKIMDRSVICHPTIVRWLEELAKKHEIPYQLEILLGGGTDAGAIHLTKAGVPTGALSVPARYIHSNTEVVDERDVDATVELMTKALENIHELKI
notes: full length, 353 residues per subunit, pET41c in E. coli BL21(DE3), no tag mentioned (heat step, Resource Q, Superdex 200), 39 kDa subunit, 468 kDa homododecamer, two Zn per active site
For B1, the Km (as a rule, the concentration of substrate that gives half-maximal velocity) is 3.2 ± 0.1 mM and the kcat (as a rule, the maximal rate divided by the concentration of active sites) came out at 14.1 ± 1.7 s⁻¹.

B2: TET2 (Pyrococcus horikoshii OT3; H123Y) (protein)
chain: MEVRNMVDYELLKKVVEAPGVSGYEFLGIRDVVIEEIKDYVDEVKVDKLGNVIAHKKGEGPKVMIAAHMDQIGLMVTHIEKNGFLRVAPIGGVDPKTLIAQRFKVWIDKGKFIYGVGASVPPYIQKPEDRKKAPDWDQIFIDIGAESKEEAEDMGVKIGTVITWDGRLERLGKHRFVSIAFDDRIAVYTILEVAKQLKDAKADVYFVATVQEEVGLRGARTSAFGIEPDYGFAIDVTIAADIPGTPEHKQVTHLGKGTAIKIMDRSVICHPTIVRWLEELAKKHEIPYQLEILLGGGTDAGAIHLTKAGVPTGALSVPARYIHSNTEVVDERDVDATVELMTKALENIHELKI
notes: as for B1
Take B2: the Michaelis-Menten constant (Km) amounted to 13.8 ± 0.6 mM and the kcat turned out to be 15.7 ± 2.7 s⁻¹.

B3: TET2 (Pyrococcus horikoshii OT3; H123F) (protein)
chain: MEVRNMVDYELLKKVVEAPGVSGYEFLGIRDVVIEEIKDYVDEVKVDKLGNVIAHKKGEGPKVMIAAHMDQIGLMVTHIEKNGFLRVAPIGGVDPKTLIAQRFKVWIDKGKFIYGVGASVPPFIQKPEDRKKAPDWDQIFIDIGAESKEEAEDMGVKIGTVITWDGRLERLGKHRFVSIAFDDRIAVYTILEVAKQLKDAKADVYFVATVQEEVGLRGARTSAFGIEPDYGFAIDVTIAADIPGTPEHKQVTHLGKGTAIKIMDRSVICHPTIVRWLEELAKKHEIPYQLEILLGGGTDAGAIHLTKAGVPTGALSVPARYIHSNTEVVDERDVDATVELMTKALENIHELKI
notes: as for B1
Consider B3, for which the Km worked out at 14.4 ± 0.6 mM and the kcat was 26.6 ± 4.1 s⁻¹.

B4: TET2 (Pyrococcus horikoshii OT3; H123K) (protein)
chain: MEVRNMVDYELLKKVVEAPGVSGYEFLGIRDVVIEEIKDYVDEVKVDKLGNVIAHKKGEGPKVMIAAHMDQIGLMVTHIEKNGFLRVAPIGGVDPKTLIAQRFKVWIDKGKFIYGVGASVPPKIQKPEDRKKAPDWDQIFIDIGAESKEEAEDMGVKIGTVITWDGRLERLGKHRFVSIAFDDRIAVYTILEVAKQLKDAKADVYFVATVQEEVGLRGARTSAFGIEPDYGFAIDVTIAADIPGTPEHKQVTHLGKGTAIKIMDRSVICHPTIVRWLEELAKKHEIPYQLEILLGGGTDAGAIHLTKAGVPTGALSVPARYIHSNTEVVDERDVDATVELMTKALENIHELKI
notes: as for B1
For the protein B4, the Km is 17.0 ± 1.3 mM and the kcat turned out to be 16.9 ± 3.6 s⁻¹.

B5: TET2 (Pyrococcus horikoshii OT3; DEL122-122/DEL126-126) (protein)
chain: MEVRNMVDYELLKKVVEAPGVSGYEFLGIRDVVIEEIKDYVDEVKVDKLGNVIAHKKGEGPKVMIAAHMDQIGLMVTHIEKNGFLRVAPIGGVDPKTLIAQRFKVWIDKGKFIYGVGASVPHIQPEDRKKAPDWDQIFIDIGAESKEEAEDMGVKIGTVITWDGRLERLGKHRFVSIAFDDRIAVYTILEVAKQLKDAKADVYFVATVQEEVGLRGARTSAFGIEPDYGFAIDVTIAADIPGTPEHKQVTHLGKGTAIKIMDRSVICHPTIVRWLEELAKKHEIPYQLEILLGGGTDAGAIHLTKAGVPTGALSVPARYIHSNTEVVDERDVDATVELMTKALENIHELKI
notes: as for B1
Take B5: under setting [1], the Michaelis constant (Km) is 28.5 ± 2.3 mM and the catalytic constant (kcat) came to 31.5 ± 8.1 s⁻¹.

B6: TET2 (Pyrococcus horikoshii OT3; DEL120-138) (protein)
chain: MEVRNMVDYELLKKVVEAPGVSGYEFLGIRDVVIEEIKDYVDEVKVDKLGNVIAHKKGEGPKVMIAAHMDQIGLMVTHIEKNGFLRVAPIGGVDPKTLIAQRFKVWIDKGKFIYGVGASIFIDIGAESKEEAEDMGVKIGTVITWDGRLERLGKHRFVSIAFDDRIAVYTILEVAKQLKDAKADVYFVATVQEEVGLRGARTSAFGIEPDYGFAIDVTIAADIPGTPEHKQVTHLGKGTAIKIMDRSVICHPTIVRWLEELAKKHEIPYQLEILLGGGTDAGAIHLTKAGVPTGALSVPARYIHSNTEVVDERDVDATVELMTKALENIHELKI
notes: as for B1
On to B6, for which, under setting [2], the Km amounted to 1.3 ± 0.1 mM and the turnover number (kcat) turned out to be 1.7 ± 1.0 s⁻¹.

Source of the values: PMC8993905, “Functional control of a 0.5 MDa TET aminopeptidase by a flexible loop revealed by MAS NMR” (Nature Communications, 2022).
